Reference: paper PMC8967061

Target: Factor H domains 19-20 (human) (UniProt P08603)
Test: MST; FH19-20 labelled with RED-tris-NTA dye (300 nM stock, mixed 1:1 with ligand), FhbA proteins titrated, PBS/0.025% Tween-20, 22 C

Factor H domains 19-20 (human), sequence (P08603 1104-1231): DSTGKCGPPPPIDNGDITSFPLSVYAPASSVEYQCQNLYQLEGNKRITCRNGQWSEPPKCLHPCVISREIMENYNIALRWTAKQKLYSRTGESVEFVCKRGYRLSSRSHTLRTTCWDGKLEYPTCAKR

| Substance | Kd |
| --- | --- |
| BhFhbA Phe154Ala (from UniProt W5SB08 44-202) (domain or fragment) | 6 µM |
| FhbA homologue from Borrelia duttonii, wild type (natural protein) | 1.06 µM |
